# Data from patent US20090068174A1, “THERAPEUTIC ALKALINE PROTEASE COMPOSITIONS AND USE IN FACILITATING THE TRANSPORT OF AGENTS ACROSS THE GASTROINTESTINAL MUCOSAL LINING” (Kansas University Medical Center Research Institute, Inc., priority 2007, published 2009).
# T1: human IFN-γ (Homo sapiens, UniProt P01579)
# T1 sequence (P01579 24-166): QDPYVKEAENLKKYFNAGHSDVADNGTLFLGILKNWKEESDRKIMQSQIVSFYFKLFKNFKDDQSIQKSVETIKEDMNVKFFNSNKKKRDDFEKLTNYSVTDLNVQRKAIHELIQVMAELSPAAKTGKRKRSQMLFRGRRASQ
# T2: mouse recombinant TNF-α (Mus musculus, UniProt P06804)
# T2 sequence (P06804 80-235 limits assumed): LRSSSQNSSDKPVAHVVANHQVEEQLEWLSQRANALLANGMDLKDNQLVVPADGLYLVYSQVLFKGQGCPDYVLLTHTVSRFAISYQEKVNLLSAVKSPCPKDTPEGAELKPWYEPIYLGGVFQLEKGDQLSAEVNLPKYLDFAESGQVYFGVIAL
# Tests used:
# [1] = Hydrolysis of D-val-leu-lys-pNA (kinetic absorbance assay); format: biochemical; details: 20 mM Tris-HCl buffer, pH 7, absorbance at 405 nm
# Experimental: Specific activity of the purified enzymes was determined by measuring hydrolysis of protamine sulfate and D-val-leu-lys-pNA. For the former, enzyme-substrate mixtures were prepared in 20 mM Tris-HCl, pH 7 or 8, and incubated for 30 min at 37° C. […] Hydrolysis of D-val-leu-lys-pNA in 20 mM Tris-HCl buffer, pH 7, was determined by measuring absorbance at 405 nm wavelength every 10 sec over 10 min and calculating the change in absorbance (mOD units) per min per μg protein.
# human TNF-α [2] = biological target: T3, human TNF-α (Homo sapiens, UniProt P01375); assay: Human TNF-α hydrolysis (Western blotting); format: biochemical; details: 50 ng cytokine with 2.5, 5, 10 ng protease, overnight at 37° C., Western blot
# T3 sequence (P01375 77-233 limits assumed): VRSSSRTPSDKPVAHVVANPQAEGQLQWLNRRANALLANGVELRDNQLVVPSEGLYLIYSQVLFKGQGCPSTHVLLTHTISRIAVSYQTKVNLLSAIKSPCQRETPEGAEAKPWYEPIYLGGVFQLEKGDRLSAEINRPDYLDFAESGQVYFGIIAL
# Experimental: (§1) Effects of the purified A. oryzae proteases on human recombinant TNF-α: (A) protease powder prepared according to Example 1 (preparation); (B) alkaline protease; (C) 26 kDa protease; and (D) deuterolysin. 50 ng quantities of TNF-α were incubated at 37° C. for 18 hours with the indicated quantities of protease powder prepared according to Example 1, alkaline protease, 26 kDa protease or deuterolysin. Western blotting was then used to determine substrate specificity. C=control, buffer-treated TNF-α.
# Human TNF-α is cleaved and inactivated by Aspergillus oryzae alkaline protease. Purified cytokine (50 ng) was first combined with the following amounts [2.5, 5, and 10 ng] of protease powder prepared according to Example 1 (preparation), as well as alkaline protease, 26 kDa protease, and deuterolysin prepared according to Example 2. Each mixture was incubated overnight at 37° C. and examined by Western blotting for evidence of proteolysis. […] Because the antibody used in this Western blot was specific for the carboxyl terminus of human TNF-α, these enzymes cleaved the cytokine at the amino terminus yielding a smaller peptide that retained the C-terminal epitope.
# human TNF-α [3] = biological target: T3, human TNF-α; assay: Bioactivity of protease-treated human TNF-α in the C2C12 cell assay (nitrite); format: cell-based; parameters: key to Inactivation of Human TNF-α: +: Indicates that the protease inactivated the cytokine; ^a: Cleavage of the cytokine occurred without inactivation; details: for Effect on bioactivity of human TNF-α: C2C12 cells costimulated with mouse IFN-γ, nitrite
# Experimental: Effects of purified A. oryzae proteases on the bioactivity of human TNF-α (A) protease powder prepared according to Example 1 (preparation); (B) alkaline protease; (C) 26 kDa protease; and (D) deuterolysin. 50 ng quantities of TNF-α were incubated at 37° C. for 24 hours with the indicated quantities (∘=buffer alone; […]=5 ng; ▪=10 ng) of: protease powder prepared according to Example 1 (preparation); alkaline protease; 26 kDa protease; and deuterolysin. The reactions were then stopped by addition of FBS and samples were added to C2C12 cells that had been costimulated with mouse IFN-γ. Twenty-four hours later, nitrite was measured in culture fluids.
# Protease-treated human TNF-α was then tested for its bioactivity in the C2C12 cell assay. […] (FIG. 12A-D)
# (§2) The protease powder prepared according to Example 1 inactivates mouse recombinant TNF-α by limited proteolysis. (FIG. 16 A-B) This property was established by measuring the loss of activity of TNF-α in a bioassay in which the cytokine was used to coactivate mouse myoblast C2C12 cells for the production of NO by transcriptional activation of the inducible NO synthase (iNOS) gene. The assay can be used to measure either TNF-α or IFN-γ activity by adding test samples containing one of the cytokines to cells stimulated with an excess of the other cytokine. Nitrite is a stable endproduct of NO produced by the cells. […] (FIG. 16A-B).
# human IFN-γ = biological target: T1, human IFN-γ; assay: Human IFN-γ degradation (Western blotting); format: biochemical; details: Western blot, antibody to carboxyl terminus
# Experimental: as §1, with “IFN-γ:” for “TNF-α:”, “(C) deuterolysin; and (D)” for “(C)”, “protease.” for “protease; and (D) deuterolysin.”, “human IFN-γ” for “TNF-α”, “preparation,” for “protease powder prepared according to Example 1,”, “IFN-γ.” for “TNF-α.”
# Cleavage was evidenced by the disappearance of the native 17 kDa IFN-γ band, rather than the appearance of distinct cleavage peptides. Because the antibody used in this Western blot was specific for the carboxyl terminus of human IFN-γ, these enzymes attack the cytokine at the C terminus (e.g., there is a loss in reactivity with the anti-cytokine antibody, rather than the appearance of smaller peptide products).
# mouse recombinant TNF-α = biological target: T2, mouse recombinant TNF-α; assay: Bioactivity of protease-treated mouse TNF-α in the C2C12 cell bioassay (nitrite); format: cell-based; parameters: key to Inactivation of Mouse TNF-α: +: Indicates that the protease inactivated the cytokine; ^a: Cleavage of the cytokine occurred without inactivation; details: for Effect on bioactivity of mouse TNF-α: C2C12 cells, NO (nitrite) production
# Experimental: Effects of three purified A. oryzae proteases on the bioactivity of mouse TNF-α (A) protease powder prepared according to Example 1 (preparation); (B) alkaline protease; (C) 26 kDa protease; and (D) deuterolysin. 50 ng quantities of TNF-α were incubated at 37° C. for 24 hours with the indicated quantities of the protease powder prepared according to Example 1 or one of the three purified proteases. The reactions were then stopped by addition of FBS and samples were added to C2C12 cells that had been costimulated with mouse IFN-γ. Twenty-four hours later, nitrite was measured in culture fluids.
# The protease powder prepared according to Example 1 inactivates mouse recombinant TNF-α. 50 ng of the cytokine was treated for 24 hours with either 0 (□); 5 (∘); or 10 ng ([…]) of either Pseudomonas elastase (A) or protease powder prepared according to Example 1 (B). Then the residual bioactivity of the cytokine was measured by its ability to co-activate mouse C2C12 myoblast cells in the presence of excess IFN-γ for the production of NO (nitrite).
# as §2
# The three purified proteases were then compared for their ability to inactivate mouse TNF-α using the C2C12 cell bioassay.
# [4] = Table 4, cited from earlier work
Molecule,"Specific activity, Val-leu-lys-pNA [1] [mOD/min/μg protein]",Cleavage of human TNF-α (human TNF-α [2]),Effect on bioactivity of human TNF-α (human TNF-α [3]),Inactivation of Human TNF-α (human TNF-α [3]; Table 7 summary),Cleavage of human IFN-γ (human IFN-γ),Effect on bioactivity of mouse TNF-α (mouse recombinant TNF-α),Inactivation of Mouse TNF-α (mouse recombinant TNF-α; Table 7 summary),pI [4],"Heat stability ([4]; deuterolysin for 10 min, alkaline protease for 3 h)"
"Alkaline Protease: Aspergillus oryzae alkaline protease (oryzin), SEQ ID NO: 2, purified from the protease powder of Example 1 (protein, listed as Aspergillus oryzae) MQSIKRTLLLLGAILPAVLGAPVQETRRAAEKLPGKYIVTFKPGIDEAKIQEHTTWATNIHQRSLERRGATGGDLPVGIERNYKINKFAAYAGSFDDATIEEIRKNEDVAYVEEDQIYYLDGLTTQKSAPWGLGSISHKGQQSTDYIYDTSAGEGTYAYVVDSGVNVDHEEFEGRASKAYNAAGGQHVDSIGHGTHVSGTIAGKTYGIAKKASILSVKVFQGESSSTSVILDGFNWAANDIVSKKRTSKAAINMSLGGGYSKAFNDAVENAFEQGVLSVVAAGNENSDAGQTSPASAPDAITVAAIQKSNNRASFSNFGKVVDVFAPGQDILSAWIGSSSATNTISGTSMATPHIVGLSLYLAALENLDGPAAVTKRIKELATKDWKDVKGSPNLLAYNGNA",116.7,produced a similar pattern of cleavage,selectively inactivated human TNF-α,+,did not cleave human IFN-γ,dose-dependent inactivation of mouse TNF-α,+,6.53,Stable at 37 °C
"26 kDa Protease: A. oryzae protease cloned recently by Novozyme, labeled the 26 kDa protease, SEQ ID NO: 3 (protein, listed as Aspergillus oryzae) HASADAWASSKAISSTSSPSSFKMRFISVSSLLLALAPALNAVPVEVAGSAQGLDVTLSQVGNTRIKAWKNTGSEDVTFVHLNFFKDAAPVQKVSLFRNATEVQFQGIKQRLITEGLSDDALTTLAPGATIEDEFDIASTSDLSEGGTITINSNGLVPITTDNKVTGYIPFTSNELSIDVDAAEAASVTQAVKILERRTKVTSCSGSRLSALQTALRNTVSLARAAATAAQSGSSSRFQEYFKTTSSSTRSTVAARLNAVANEAASTSSGSTTYYCSDVYGYCSSNVLAYTLPSYNIIANCDLYYSYLPALTSTCHAQDQATTTLHEFTHAPGVYSPGTDDLGYGYSAATALSASQALLNADTYALFANAVNLNC",2.1,to a lesser extent,did not significantly alter the biological activity of the cytokine,–,cleave human IFN-γ,devoid of such activity,–,6.72,–
